Experimental data published in PMC3998375 (Structure (London, England : 1993), 2013).

Columns and labels:
[1] = target: murine B7-H3 ectodomain (mB7H3), wild type (mouse) (UniProt Q8VE98); test: SEC
[2] = target: the molecule itself; test: SEC

kon [1] [M⁻¹ s⁻¹] | stoichiometry N [1] | Molecule | kon [2] [M⁻¹ s⁻¹]
0.000161 | 2 | murine B7-H3 ectodomain (mB7H3), wild type (from UniProt Q8VE98 34-247) (domain or fragment) | –
– | – | murine B7-H3 ectodomain (mB7H3) I126T (domain or fragment, mouse, UniProt Q8VE98 34-247, looked up) SEDPVVALVDTDATLRCSFSPEPGFSLAQLNLIWQLTDTKQLVHSFTEGRDQGSAYSNRTALFPDLLVQGNASLRLQRVRVTDEGSYTCFVSTQDFDSAAVSLQVAAPYSKPSMTLEPNKDLRPGNMVTITCSSYQGYPEAEVFWKDGQGVPLTGNVTTSQMANERGLFDVHSVLRVVLGANGTYSCLVRNPVLQQDAHGSVTITGQPLTFPPE | 4.1e-05
– | – | murine B7-H3 ectodomain (mB7H3) FG-loop chimera (I126Y/Q127G/D128G/F129A) (domain or fragment, mouse, UniProt Q8VE98 34-247, looked up) SEDPVVALVDTDATLRCSFSPEPGFSLAQLNLIWQLTDTKQLVHSFTEGRDQGSAYSNRTALFPDLLVQGNASLRLQRVRVTDEGSYTCFVSYGGADSAAVSLQVAAPYSKPSMTLEPNKDLRPGNMVTITCSSYQGYPEAEVFWKDGQGVPLTGNVTTSQMANERGLFDVHSVLRVVLGANGTYSCLVRNPVLQQDAHGSVTITGQPLTFPPE | 8.3e-06
– | – | murine B7-H3 ectodomain (mB7H3) F129A (domain or fragment, mouse, UniProt Q8VE98 34-247, looked up) SEDPVVALVDTDATLRCSFSPEPGFSLAQLNLIWQLTDTKQLVHSFTEGRDQGSAYSNRTALFPDLLVQGNASLRLQRVRVTDEGSYTCFVSIQDADSAAVSLQVAAPYSKPSMTLEPNKDLRPGNMVTITCSSYQGYPEAEVFWKDGQGVPLTGNVTTSQMANERGLFDVHSVLRVVLGANGTYSCLVRNPVLQQDAHGSVTITGQPLTFPPE | 0.000164
